± gives the standard deviation of the averaged measurements.
test system: ATP; assay: switch fluorescence ratio, 500 uM ATP over buffer (Cy3 cluster intensity, sum of 5 cycles each) (fold (ratio)); higher = stronger signal-on switching upon ATP binding; sequences stand for … in TCGTCGGCAGCGTCAGATGTGTATAAGAGACAGTTTTTTTTTTTTTTTTTTTTTTTTT…TC; settings: aptamer strand: ATP DNA aptamer (quencher-CACCTGGGGGAGTATTGCGGAGGAAGG + anchor), 100 nM annealed; ATP concentration: 500 uM
How it was run: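 After annealing to 100 nM quencher-labelled ATP aptamer, Cy3-labelled switching-strand clusters on a modified Illumina MiSeq flow-cell were imaged in selection buffer. A second image followed after 15 min with 500 uM ATP at 22 °C, and five such buffer/ATP cycles were done, each separated by NaOH stripping and re-annealing. The fluorescence ratio, averaged per switch-domain sequence, is summed target-cycle over summed buffer-cycle Cy3 intensity per cluster, with clusters outside 100-1000 RFU excluded.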
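Also: ATP exposure 15 min at 22 °C before imaging.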

Point of comparison: ACGCGCGGAA, switch fluorescence ratio 1.008 ± 0.003. Against it:
- ACGATGATGT — higher, 1.0279 ± 0.00059
- ACGATGCGGG — higher, 1.09 ± 0.025
- ACGATGGCTG — higher, 1.04 ± 0.015
- ACGATTAGTT — lower, 0.971 ± 0.032
- ACGATTGGGT — lower, 0.992 ± 0.013
- ACGCAGTATA — higher, 1.05 ± 0.013
- ACGCAGTTCT — higher, 1.061 ± 0.008
- ACGCCCATTT — higher, 1.15 ± 0.06
- ACGCCGGATT — the same, 1.01 ± 0.027
- ACGCCGGCGA — lower, 0.9729 ± 0.002
- ACGCCGGCTT — higher, 1.272 ± 0.0019
- ACGCCGTATG — within error, 1 ± 0.011
- ACGCTATCGC — higher, 1.526 ± 0.0041
- ACGCTCCTAC — higher, 2.64 ± 0.028
- ACGCTCGACC — higher, 1.75 ± 0.15
- ACGCTGGTGT — within error, 1.34 ± 0.44
- ACGCTGTCGG — the same, 1.006 ± 0.0068
- ACGCTGTTGG — the same, 1.01 ± 0.035
- ACGGAAAGTT — lower, 0.9876 ± 0.0071
- ACGGAATTTT — within error, 1.09 ± 0.08
- ACGGAGACGG — within error, 0.979 ± 0.067
- ACGGAGGGTT — lower, 0.992 ± 0.01
- ACGGATATGG — lower, 0.98 ± 0.011
- ACGGATCCTT — higher, 1.026 ± 0.0059
- ACGGATTAGG — the same, 1.01 ± 0.021
- ACGGCAGGAA — within error, 1.04 ± 0.043
- ACGGCATCAT — higher, 1.076 ± 0.0017
- ACGGCCGGGG — higher, 1.04 ± 0.027
- ACGGCGCTTA — higher, 1.19 ± 0.054
- ACGGCGGGGG — within error, 1.15 ± 0.25
- ACGGCTAGCG — within error, 1.02 ± 0.022
- ACGGCTGCGT — higher, 1.05 ± 0.029
- ACGGCTTACT — higher, 1.208 ± 0.0019
- ACGGGCAGAG — within error, 1.02 ± 0.013
- ACGGGCCGGT — within error, 0.98 ± 0.069
- ACGGGCGCAG — within error, 0.994 ± 0.017
- ACGGGCTGCT — within error, 1 ± 0.018
- ACGGGGAGGG — within error, 1.04 ± 0.037
- ACGGGGGAGT — within error, 1.03 ± 0.019
- ACGGGGGCGC — within error, 0.986 ± 0.059
- ACGGGGGCGG — within error, 1 ± 0.033
- ACGGGGGCTT — within error, 1.04 ± 0.062
- ACGGGGGGTT — within error, 1.05 ± 0.085
- ACGGGGTCCG — lower, 0.95 ± 0.03
- ACGGGGTCT — within error, 1.02 ± 0.012
- ACGGGGTGGT — higher, 1.065 ± 0.0059
- ACGGGGTGTA — within error, 0.986 ± 0.041
- ACGGGTATGG — the same, 1.01 ± 0.017
- ACGGGTGAGC — higher, 1.09 ± 0.011
- ACGGGTGGGA — lower, 1.005 ± 0.0036
- ACGGGTTGGC — higher, 1.064 ± 0.0044
- ACGGGTTTGT — lower, 0.9774 ± 0.0036
- ACGGTAAGTG — within error, 1.02 ± 0.042
- ACGGTATCTT — higher, 1.13 ± 0.019
- ACGGTATGTG — within error, 1.03 ± 0.033
- ACGGTATTTG — higher, 1.13 ± 0.035
- ACGGTCACCC — higher, 1.66 ± 0.07
- ACGGTCGGA — lower, 0.9979 ± 0.0048
- ACGGTCGTTA — lower, 0.975 ± 0.027
- ACGGTCTGGC — within error, 1.02 ± 0.035
- ACGGTGGTGT — higher, 1.03 ± 0.016
- ACGGTTGAGC — within error, 1 ± 0.021
- ACGGTTGATG — lower, 0.986 ± 0.021
- ACGGTTGTTT — higher, 1.0154 ± 0.00077
- ACGGTTTAAC — higher, 1.105 ± 0.005
- ACGGTTTTTG — within error, 0.993 ± 0.029
- ACGTAAACGC — higher, 1.085 ± 0.0018
- ACGTACATGT — higher, 1.44 ± 0.018
- ACGTAGGCGG — within error, 1.02 ± 0.062
- ACGTATATTG — higher, 1.058 ± 0.0052
- ACGTCAAGGG — higher, 1.1 ± 0.067
- ACGTCAAGTA — lower, 0.985 ± 0.022
- ACGTCGCATT — higher, 1.19 ± 0.035
- ACGTCGCCGG — within error, 0.987 ± 0.038
- ACGTCGGGCT — the same, 1.01 ± 0.021
- ACGTCGGTAC — higher, 3 ± 0.49
- ACGTCTTACT — higher, 1.101 ± 0.0018
- ACGTCTTAGT — within error, 1 ± 0.021
- ACGTGCAATT — higher, 1.37 ± 0.21
- ACGTGGTATG — within error, 1.02 ± 0.015
- ACGTGTACGG — within error, 1.03 ± 0.022
- ACGTGTGAC — within error, 1 ± 0.023
- ACGTTAAGCG — the same, 1.01 ± 0.035
- ACGTTAATGC — higher, 2.09 ± 0.21
- ACGTTAGGTC — higher, 1.04 ± 0.019
- ACGTTATTTG — higher, 1.11 ± 0.052
- ACGTTCGGAG — within error, 1.05 ± 0.05
- ACGTTCGGCG — lower, 0.9968 ± 0.0021
- ACGTTGCAGA — the same, 1.006 ± 0.006
- ACGTTGCTAA — higher, 1.0246 ± 0.00021
- ACGTTGCTGA — within error, 1.02 ± 0.028
- ACGTTGTGAG — lower, 0.969 ± 0.037
- ACGTTTACCA — higher, 1.217 ± 0.0099
- ACGTTTCCCC — higher, 1.09 ± 0.025
- ACGTTTTCGG — lower, 0.9837 ± 0.0052
- ACGTTTTGAG — the same, 1.0122 ± 0.00047
- ACTAAAAGGC — the same, 1.0107 ± 3.2e-05
- ACTAAATAGT — lower, 0.987 ± 0.013
- ACTAAGGATT — within error, 1.02 ± 0.018

From the supplement of paper PMC10126150
